Entries after “also recorded” stand apart in the source; their conditions may differ. Each block holds one molecule with its values, some of them ahead of it.
Legend:
αIIbβ3 integrin = biological target: T1, αIIbβ3 integrin (Homo sapiens, UniProt P05106+P08514); assay: LIBS antibody binding to human platelets (flow cytometry); format: cell-based; conditions: for LIBS binding to platelets (3 LIBS mAbs): platelets with PGE1 / kept on ice; for D3 LIBS antibody binding to platelets: 100 μM clasp peptide in the presence of RGD
T1 construct: Platelets and megakaryocytes are the only cells to express αIIbβ3 integrin; endogenous in cells; host or cells: washed human platelets from a healthy donor
Procedure: Preparation of Fresh Platelets—Collection of human blood was performed under an approved protocol of the Washington University School of Medicine Human Studies Committee. 30 mL of blood was drawn from a healthy donor into 3% sodium citrate, and centrifuged at 200×g for 10 min. at room temp. to yield platelet-rich plasma (PRP). The PRP was treated with 1 μg/ml prostaglandin E1 (PGE-1) and centrifuged at 500×g for 5 min. The platelet pellet was resuspended in Tyrode's solution (137 mM NaCl, 2.7 mM KCl, 2 mM CaCl2, 1 mM MgCl2, 3.3 mM NaH2PO4, 5.5 mM glucose, 20 mM HEPES, pH 7.4 with 1 mg/ml BSA and 1 μg/ml PGE-1. The platelet suspension was stored on ice for 1 to 48 hr or treated as described below.
(§1) Flow Cytometry—Binding of anti-β3 mAb AP3 and anti-LIBS mAbs LIBS1, LIBS6 and D3 was quantified using a Coulter EPICS flow cytometer. 10^6 cells were washed and resuspended in 100 μl of FACS buffer (1% BSA, 2 mM MgCl2, in PBS) and incubated on ice for 30 minutes. Cells were washed and resuspended in buffer (PBS+2 mM MgCl2 or 1 mM each CaCl2 and MgCl2) along with combinations of 0-1 mM GRGDSP (SEQ ID NO: 19) with 500 μM MnCl2, 100 μM P2483, 100 μM P2484, and 100 μM P2485 or control peptide. Cells were then incubated on ice for 30 minutes. Cells were washed and incubated in 100 μl of buffer (PBS+2 mM MgCl2) containing donkey anti-mouse IgG-FITC at a 1:100 dilution for an additional 30 min. After washing, the cells were diluted to 0.5 ml and analyzed by flow cytometry. Data was analyzed using WinMDI software.
Platelets and megakaryocytes are the only cells to express αIIbβ3 integrin, and thus platelets offer a unique system in which to test the effects of the clasp peptides on β3 integrin activation. They also provide the opportunity to compare the activation response to the clasp peptides of αIIbβ3 vs αvβ3. Several G protein coupled receptors (e.g. those for ADP, thromboxane and thrombin) on platelets can rapidly activate αIIbβ3 via inside-out signaling (2). To eliminate this route of activation platelets were incubated with PGE1, which elevates cyclic AMP levels via Gs, and in some experiments also used apyrase to block activation by leaked ADP (39). In addition, platelets were kept on ice for as long as 24 to 48 hours to ensure metabolic inactivity. While short-term exposure to cold can activate platelets, long term exposure makes platelets refractory to activation (40).

C32 melanoma cells = assay: C32 cell adhesion and spreading on vitronectin; format: cell-based, human; conditions: Vn-coated wells
Procedure: Cell Spreading Assay—Spreading of C32 cells on Vn was performed as described (31) in 24-well tissue culture plates coated with 0.5 μg/ml Vn and blocked with 1% BSA/PBS for 2 hrs at room temperature. C32 cells were plated in HBSS with 2 mM CaCl2 and 2 mM MgCl2 in the presence of 2 mM MnSO4, and indicated amounts of GRGDSP (SEQ ID NO: 19), P2483, P2484, or 4N1K. Cells were allowed to spread for 30 minutes at 37° C., after which the cells were fixed, stained, and photographed.
As an initial approach to testing the function of the putative clasp region of β3 integrins, synthetic peptides were used to mimic the α and β sides of the clasp. It was reasoned that αIIbβ3 is likely to be held in the off state more securely than αvβ3, and thus the αIIb clasp sequence was chosen for these experiments (Table 1). To evaluate the effects of the putative clasp peptides on αvβ3 activation in live cells, adhesion and spreading assays using C32 melanoma cells were performed. […] Not until αvβ3 is activated, e.g. via Mn^++ or CD47 stimulation, does αvβ3-dependent spreading occur (35). The assay was performed in Ca^++/Mg^++ which supports integrin activity, and we used Mn^++ activation of αvβ3 as a positive control (6). The putative clasp peptides were incubated with cells added to the Vn-coated wells and after 30 min at 37° cell attachment and spreading were assessed (FIG. 1).

αvβ3 integrin = biological target: T2, αvβ3 integrin (Homo sapiens, UniProt P05106+P06756); assay: LIBS antibody binding to αvβ3 on K562 cells (flow cytometry); format: cell-based; conditions: K562 cells expressing αvβ3; for LIBS1 antibody binding: 100 μM peptide, in the presence of 1 mM RGD peptide, absence of Mn++; for LIBS1, LIBS6 or D3 antibody binding (fluorescence): 1 mM GRGDSP vs LIBS antibody with no RGD peptide
T2 construct: Full length cDNA clones of human αv and β3 integrin subunits were provided by Dr. Scott Blystone; expressed in transfected cells; host or cells: human K562 erythroleukemia cells (ATCC CCL-243), stably expressing αvβ3
Procedure: as §1
To more directly monitor changes in integrin conformation, a series of antibodies (mAbs) were used that react with ligand-bound or activated states of β3 integrins. These LIBS mAbs used here recognize epitopes at three different sites within the stalk region of the β3 subunit that are masked in the “off” state and only become accessible when the integrin is “opened up” in the ligand-binding, activated conformation (37). When K562 cells transfected to express αvβ3 integrin were incubated with the LIBS1 or LIBS6 mAbs alone (dotted histograms in FIG. 2), little antibody binding above isotype control mAb or secondary mAb alone was detected. D3 mAb appeared to induce some activation of the integrin since its binding to αvβ3 (FIG. 2, dotted line) was several fold above that of controls. GRGDSP (SEQ ID NO: 19) peptide augments LIBS binding by stabilizing active conformations of the β3 integrin. […] The effect of the clasp peptides on the binding of each LIBS mAb was determined in the presence of 1 mM RGD peptide, but in the absence of Mn^++.

[1] = biological target: wild-type human αvβ3 integrin on cells (human, UniProt P06756 31-1048; P05106 27-788); assay: cell-based or functional assay
[2] = 100 μM clasp peptide in the presence of 100 μM RGD, metabolically inactive human platelets
[3] = 100 μM clasp peptide, 30 min at 37°

T2 sequence (P06756 31-889 limits assumed): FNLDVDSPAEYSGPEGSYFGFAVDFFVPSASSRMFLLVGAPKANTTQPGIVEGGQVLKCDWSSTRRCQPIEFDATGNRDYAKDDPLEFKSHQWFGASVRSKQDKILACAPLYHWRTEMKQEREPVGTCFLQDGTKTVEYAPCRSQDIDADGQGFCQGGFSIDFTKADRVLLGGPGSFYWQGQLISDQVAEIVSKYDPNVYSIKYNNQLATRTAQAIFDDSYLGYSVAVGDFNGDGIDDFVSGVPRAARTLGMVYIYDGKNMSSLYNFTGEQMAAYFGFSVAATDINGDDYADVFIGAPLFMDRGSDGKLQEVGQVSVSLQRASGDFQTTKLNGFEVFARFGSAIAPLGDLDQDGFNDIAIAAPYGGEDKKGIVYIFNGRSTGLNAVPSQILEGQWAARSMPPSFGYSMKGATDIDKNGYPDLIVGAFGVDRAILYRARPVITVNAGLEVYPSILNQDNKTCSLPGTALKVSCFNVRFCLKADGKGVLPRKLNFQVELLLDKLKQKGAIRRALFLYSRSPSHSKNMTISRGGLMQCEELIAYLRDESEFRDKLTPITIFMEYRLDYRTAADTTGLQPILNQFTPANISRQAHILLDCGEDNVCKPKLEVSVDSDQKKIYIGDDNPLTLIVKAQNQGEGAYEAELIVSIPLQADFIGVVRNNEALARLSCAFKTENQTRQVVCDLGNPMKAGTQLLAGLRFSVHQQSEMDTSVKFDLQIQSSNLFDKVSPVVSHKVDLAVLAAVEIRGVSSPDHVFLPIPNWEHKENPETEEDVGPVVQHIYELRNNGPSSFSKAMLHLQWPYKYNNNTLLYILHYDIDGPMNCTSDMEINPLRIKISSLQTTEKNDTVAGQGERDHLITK
T2 sequence (P06756 891-1048 limits assumed): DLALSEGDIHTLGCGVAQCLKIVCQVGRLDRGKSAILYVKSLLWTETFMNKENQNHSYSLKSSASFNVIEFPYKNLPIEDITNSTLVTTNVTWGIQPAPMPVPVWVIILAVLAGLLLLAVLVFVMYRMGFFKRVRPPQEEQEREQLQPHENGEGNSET
T2 sequence (P05106 27-788): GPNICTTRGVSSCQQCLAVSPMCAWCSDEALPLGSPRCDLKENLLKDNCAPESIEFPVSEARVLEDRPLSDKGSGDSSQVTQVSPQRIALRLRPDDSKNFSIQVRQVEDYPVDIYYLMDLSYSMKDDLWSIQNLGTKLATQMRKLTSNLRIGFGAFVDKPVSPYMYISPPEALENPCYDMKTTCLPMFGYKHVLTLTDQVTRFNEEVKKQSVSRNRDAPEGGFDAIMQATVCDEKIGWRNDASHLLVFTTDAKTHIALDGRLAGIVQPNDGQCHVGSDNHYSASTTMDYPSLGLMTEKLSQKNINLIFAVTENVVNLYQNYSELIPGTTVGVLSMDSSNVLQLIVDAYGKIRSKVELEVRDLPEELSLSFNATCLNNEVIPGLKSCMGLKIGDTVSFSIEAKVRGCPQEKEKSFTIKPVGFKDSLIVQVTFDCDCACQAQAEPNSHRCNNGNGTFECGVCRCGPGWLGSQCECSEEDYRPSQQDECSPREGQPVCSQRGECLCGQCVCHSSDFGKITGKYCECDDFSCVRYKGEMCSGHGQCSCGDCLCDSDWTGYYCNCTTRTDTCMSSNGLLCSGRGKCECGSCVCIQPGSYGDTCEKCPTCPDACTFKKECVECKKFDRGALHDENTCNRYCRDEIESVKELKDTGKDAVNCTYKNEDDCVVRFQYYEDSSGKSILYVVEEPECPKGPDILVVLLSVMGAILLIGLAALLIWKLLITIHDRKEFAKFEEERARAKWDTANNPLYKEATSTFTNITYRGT
Sequence of wild-type human αvβ3 integrin on cells (P06756 31-1048, chain 1 of 2): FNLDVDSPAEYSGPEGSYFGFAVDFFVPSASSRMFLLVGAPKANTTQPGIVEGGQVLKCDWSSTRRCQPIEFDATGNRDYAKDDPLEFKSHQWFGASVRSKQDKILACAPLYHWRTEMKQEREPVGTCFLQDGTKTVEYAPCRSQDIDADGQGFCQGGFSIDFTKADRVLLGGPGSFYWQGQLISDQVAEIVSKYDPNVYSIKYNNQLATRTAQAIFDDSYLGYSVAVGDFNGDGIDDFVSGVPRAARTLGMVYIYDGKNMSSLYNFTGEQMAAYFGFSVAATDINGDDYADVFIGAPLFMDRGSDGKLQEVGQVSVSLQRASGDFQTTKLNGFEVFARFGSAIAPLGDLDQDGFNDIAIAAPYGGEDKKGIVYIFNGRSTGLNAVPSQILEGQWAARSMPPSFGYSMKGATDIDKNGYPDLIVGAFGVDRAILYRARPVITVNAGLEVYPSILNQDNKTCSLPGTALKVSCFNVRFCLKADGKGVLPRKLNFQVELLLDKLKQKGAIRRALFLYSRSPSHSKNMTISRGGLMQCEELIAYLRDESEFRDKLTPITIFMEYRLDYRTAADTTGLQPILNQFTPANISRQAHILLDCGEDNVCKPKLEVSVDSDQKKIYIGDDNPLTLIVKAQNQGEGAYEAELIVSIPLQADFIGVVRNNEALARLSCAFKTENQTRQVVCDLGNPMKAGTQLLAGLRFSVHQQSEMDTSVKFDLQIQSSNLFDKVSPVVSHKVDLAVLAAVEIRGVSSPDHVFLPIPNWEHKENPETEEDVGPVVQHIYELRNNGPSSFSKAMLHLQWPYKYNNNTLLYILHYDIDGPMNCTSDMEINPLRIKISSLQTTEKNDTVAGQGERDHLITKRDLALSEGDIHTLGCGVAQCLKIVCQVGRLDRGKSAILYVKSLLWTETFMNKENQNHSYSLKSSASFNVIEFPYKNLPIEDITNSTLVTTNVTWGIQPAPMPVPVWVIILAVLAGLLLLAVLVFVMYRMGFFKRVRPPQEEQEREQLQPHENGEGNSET
Sequence of wild-type human αvβ3 integrin on cells (P05106 27-788, chain 2 of 2): as the sequence (P05106 27-788) above

LIBS1 binding shift (αIIbβ3 integrin; 0.5 mM Mn++ added to 100 μM RGD, human platelets): further magnified
LIBS antibody binding shift (αvβ3 integrin; 0.5 mM Mn++ added to 1 mM GRGDSP): further augmented
Molecule: [Mn+2] [Mn^++]
C32 cell adhesion to Vn (C32 melanoma cells; 2 mM MnSO4): increased adhesion
C32 cell spreading (C32 melanoma cells; 2 mM MnSO4): enhanced spreading
increase in number of spread cells (C32 melanoma cells; 2 mM MnSO4): ca. 3 fold

Molecule: thrombin receptor activating peptide [TRAP]
LIBS binding to platelets (3 LIBS mAbs) (αIIbβ3 integrin; 10 μM TRAP): Neither of these agonists was able to increase LIBS binding

Molecule: KRFYVVMWKK (listed as Homo sapiens) [4N1K]
increase in number of spread cells (C32 melanoma cells; 50 μM 4N1K): ~10 fold
C32 cell adhesion increased (C32 melanoma cells; 50 μM 4N1K, 30 min at 37°, no additions set at 100%): 400%

LIBS1 antibody binding (αvβ3 integrin): did not enhance LIBS1 binding
Molecule: KMDASAAVS (listed as Homo sapiens) [control peptide]

LIBS1 binding to αIIbβ3 (αIIbβ3 integrin; [2]): increased LIBS1 binding
D3 LIBS antibody binding to platelets (αIIbβ3 integrin; human platelets): large rightward shifts
LIBS1 antibody binding (αvβ3 integrin): dramatically increased
Molecule: YMESRADRK (listed as Homo sapiens) [P2484]
LIBS1 binding to αIIbβ3 (αIIbβ3 integrin; 100 μM clasp peptide in the presence of 100 μM RGD, metabolically inactive human platelets, listed as αIIb clasp peptide): increased binding well above that with RGD alone
C32 cell adhesion (C32 melanoma cells; [3]): stimulated cell adhesion to an extent comparable to 4N1K
LIBS1 antibody binding (αvβ3 integrin; listed as 2484): greater than that promoted by RGD plus Mn^++

Molecule: Nc1ncnc2c1ncn2[C@@H]1O[C@H](COP(=O)(O)OP(=O)(O)O)[C@@H](O)[C@H]1O [ADP]
LIBS binding to platelets (3 LIBS mAbs) (αIIbβ3 integrin; 50 μM ADP): Neither of these agonists was able to increase LIBS binding

LIBS1 binding to αIIbβ3 (αIIbβ3 integrin; 100 μM RGD, human platelets): sufficient to increase LIBS1 binding
LIBS6 binding to αIIbβ3 (αIIbβ3 integrin; 100 μM RGD, human platelets): not increased
LIBS1, LIBS6 or D3 antibody binding (fluorescence) (αvβ3 integrin): increase in fluorescence
LIBS1, LIBS6 or D3 antibody binding (fluorescence) (αvβ3 integrin; listed as RGD peptide): increase in D3 binding
Molecule: GRGDSP
C32 cell adhesion (C32 melanoma cells; 0.5 mM GRGDSP): effectively reduced cell adhesion; also recorded: nearly eliminated
C32 cell spreading (C32 melanoma cells; 0.5 mM GRGDSP): nearly eliminated

LIBS1 binding to αIIbβ3 (αIIbβ3 integrin; [2]): unable to increase LIBS1 binding
LIBS1 binding to αIIbβ3 (αIIbβ3 integrin; 100 μM clasp peptide in the presence of 100 μM RGD, metabolically inactive human platelets, listed as β3 clasp peptide): failed to increase LIBS1 binding
D3 LIBS antibody binding to platelets (αIIbβ3 integrin; human platelets): marginally stimulated D3 binding
LIBS1 antibody binding (αvβ3 integrin): dramatically increased
Molecule: TTRTDTC (listed as Homo sapiens) [P2483]
C32 cell adhesion (C32 melanoma cells; [3]): stimulated cell adhesion to an extent comparable to 4N1K
LIBS1 antibody binding (αvβ3 integrin; listed as 2483): greater than that promoted by RGD plus Mn^++

C32 cell spreading on vitronectin [1]: 78 fold
Molecule: YMESRADRK [P2484 (αIIb integrin clasp peptide, residues 313-321, YMESRADRK)]

C32 cell spreading on vitronectin [1]: 9 fold
Molecule: TTRTDTC [P2483 (β3 integrin clasp peptide, residues 561-567, TTRTDTC)]
